Results taken from publication PMC2132943.

Molecular target: T1, CXCR4 receptor (human (endogenous in HEK-293)), P61073
T1 chain: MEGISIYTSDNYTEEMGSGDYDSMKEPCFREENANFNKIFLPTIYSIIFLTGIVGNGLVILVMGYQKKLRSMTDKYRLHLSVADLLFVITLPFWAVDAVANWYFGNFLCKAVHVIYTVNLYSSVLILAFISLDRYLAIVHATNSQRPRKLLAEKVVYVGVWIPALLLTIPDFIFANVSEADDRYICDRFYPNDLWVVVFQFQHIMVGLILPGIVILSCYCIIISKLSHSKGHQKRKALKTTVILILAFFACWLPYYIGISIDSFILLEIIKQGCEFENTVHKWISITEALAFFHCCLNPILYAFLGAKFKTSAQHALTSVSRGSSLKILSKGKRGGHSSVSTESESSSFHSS
Assay: cross-linking
Conditions: remark: other sources report otherwise

B1: CXCR4 receptor, P61073 1-352 (receptor)
chain: T1 chain
Question: Which stoichiometry N does the source give for B1 here?
Answer: 2
